Reference: US20180044653A1, “Mutant Yeast Strain Capable of Degrading Cellobiose” (Institut National de la Recherche Agronomique, priority 2015, published 2018)

Tests used:
[1] = substrate: OC[C@H]1O[C@@H](OC[C@H]2OC(O)[C@H](O)[C@@H](O)[C@@H]2O)[C@H](O)[C@@H](O)[C@@H]1O; assay: purified protein, by the assay type; conditions: other: apparent; 0.13 nM Bgl2; released glucose; mean of three experiments, SD below 10%
[2] = substrate: OC[C@H]1O[C@@H](O[C@H]2C(O)O[C@H](CO)[C@@H](O)[C@@H]2O)[C@H](O)[C@@H](O)[C@@H]1O; assay: purified protein, by the assay type; conditions: other: apparent; 0.13 nM Bgl2; released glucose; mean of three experiments, SD below 10%
[3] = substrate: OC[C@H]1O[C@@H](O[C@H]2[C@H](O)[C@@H](CO)OC(O)[C@@H]2O)[C@H](O)[C@@H](O)[C@@H]1O; assay: purified protein, by the assay type; conditions: other: apparent; 0.13 nM Bgl2; released glucose; mean of three experiments, SD below 10%
[4] = substrate: OC[C@H]1O[C@@H](O[C@H]2[C@H](O)[C@@H](O)[C@H](O[C@H]3[C@H](O)[C@@H](O)C(O)O[C@@H]3CO)O[C@@H]2CO)[C@H](O)[C@@H](O)[C@@H]1O; assay: purified protein, by the assay type; conditions: other: apparent; 0.13 nM Bgl2; released glucose; mean of three experiments, SD below 10%
[5] = substrate: OC[C@H]1O[C@@H](O[C@H]2[C@H](O)[C@@H](O)[C@H](O[C@H]3[C@H](O)[C@@H](O)[C@H](O[C@H]4[C@H](O)[C@@H](O)C(O)O[C@@H]4CO)O[C@@H]3CO)O[C@@H]2CO)[C@H](O)[C@@H](O)[C@@H]1O; assay: purified protein, by the assay type; conditions: other: apparent; 0.13 nM Bgl2; released glucose; mean of three experiments, SD below 10%
[6] = substrate: OC[C@H]1O[C@@H](O[C@H]2[C@H](O)[C@@H](O)[C@H](O[C@H]3[C@H](O)[C@@H](O)[C@H](O[C@H]4[C@H](O)[C@@H](O)[C@H](O[C@H]5[C@H](O)[C@@H](O)[C@H](O[C@H]6[C@H](O)[C@@H](O)C(O)O[C@@H]6CO)O[C@@H]5CO)O[C@@H]4CO)O[C@@H]3CO)O[C@@H]2CO)[C@H](O)[C@@H](O)[C@@H]1O; assay: purified protein, by the assay type; conditions: other: apparent; 0.13 nM Bgl2; released glucose; mean of three experiments, SD below 10%
[7] = substrate: CCCCCCCCO[C@@H]1O[C@H](CO)[C@@H](O)[C@H](O)[C@H]1O; assay: Enzyme kinetics on glycoside substrates, released glucose, Michaelis-Menten (Bgl2); assay type: biochemical, Yarrowia lipolytica; conditions: other: apparent, 0.13 nM Bgl2, mean of three experiments, SD below 10%
Description: (§1) When using aryl-substrates, the standard assay method was employed, simply replacing pNPGlc by another substrate as appropriate. For oligosaccharides, the release of glucose was quantified using an enzyme kit (D-Fructose/D-Glucose Assay Kit, liquid stable, Megazyme). […] Initial rates were fitted to the Michaelis-Menten kinetic equation using a nonlinear regression (SigmaPlot 10) to extract the apparent KM and kcat (Segel, 1993).

[8] = substrate: OC[C@H]1O[C@@H](O[C@H]2[C@H](O)[C@@H](O)C(O)O[C@@H]2CO)[C@H](O)[C@@H](O)[C@@H]1O; assay: as above; assay type: biochemical, Yarrowia lipolytica; conditions: other: apparent, 0.13 nM Bgl2, mean of three experiments, SD below 10%
Description: as §1

[9] = substrate: OC[C@H]1O[C@@H](O[C@H]2[C@H](O)[C@@H](O)[C@H](O[C@H]3[C@H](O)[C@@H](O)[C@H](O[C@H]4[C@H](O)[C@@H](O)[C@H](O[C@H]5[C@H](O)[C@@H](O)C(O)O[C@@H]5CO)O[C@@H]4CO)O[C@@H]3CO)O[C@@H]2CO)[C@H](O)[C@@H](O)[C@@H]1O; assay: as above; assay type: biochemical, Yarrowia lipolytica; conditions: other: apparent, 0.13 nM Bgl2, mean of three experiments, SD below 10%
Description: as §1

B1: Yarrowia lipolytica β-glucosidase Bgl2 (YALI_BGL2, YALI0B14289g, SEQ ID NO: 6; mature SEQ ID NO: 2), native (Yarrowia lipolytica CLIB122) (protein)
chain: DPFSDKDAYKHSPPYYPAPEIGRVPTDLRWRAALKVAQGMVANMTLLEKVNITTGTGWEMGPCVGNTGTVERLGIKSLCLQDGPLGIRFADLITTFPAGITIASTFSRQLVRERGAAMGRENRRKGVDITLSPVVGPLGRHANGGRIWEGFSADPYLAGKLAAEAVTGIQGQNVMAVVKHMVGNEQEHFRQLGEWQGFGFKDLKQPLSSNIDDRTLNEAYLWPFADAVRANVGSVMCSYQQINGSQGCQNAHILNGKLKEEMGFQGFVMSDWLAQRSGVASVLAGLDMSMPGDGLVWADGVPLMGYELTRSVLNGTIDESRVDDMVTRILTPILYLSITPTDPNFSSWTNDTTSYKYYGAKAGGNVTVNRHIDVRDQYTTKAALDGANAALVLLKNEKKTLPLNPTNIGNLNIFGIGSKTGPLGAVCGENMQCSDGALIEGWGSGSVYPTDYQSPYDAIKERASKDNITIGGTTQSWGNLSNVEILSAAADASVVFVLSDSGESTGIVDGNIGDRNNLTLWHNGDEVVKAVASKNPNTIVVVTTVGPVNLEKWIDNPNVTAVLLTGPAGDFGGRAAASILFGDIAPSGKLPFTIAKNDTDYIPLTTKIPEDGLPQDYFTEGTLLDYKRFDENQVTPRFEFGYGLSYSNITVENLEARYAFPSIPEFLPTPFAPSNPNKPKNAFTPHANESVFPSDIDPLNKYVYPYLNDTSEIFSNETHYPYPEGYSSEQSNSTNINGGAVGGNPALWLSAVYIVHSVSNYGPYDTGVVTQMYIAFPQDNDDLKTAPRQLRGFERSELKVGERQGILYDVQWRDLAVWDVKLQSWRVQRGEYKVYVGHSSRDFVLTTSFTLK
B1 showed a Km [1] of 1840 µM, a kcat [1] of 186.5 s⁻¹ and a kcat/Km [1] of 101000 M⁻¹ s⁻¹. The Km [2] was 2400 µM, the kcat [2] was 41.2 s⁻¹ and the kcat/Km [2] was 17200 M⁻¹ s⁻¹. The Km [3] was 890 µM, the kcat [3] was 211.1 s⁻¹ and the kcat/Km [3] was 237000 M⁻¹ s⁻¹. It also gave a Km [4] of 990 µM, a kcat [4] of 9.5 s⁻¹ and a kcat/Km [4] of 9600 M⁻¹ s⁻¹. It also gave a Km [5] of 1860 µM, a kcat [5] of 20.6 s⁻¹ and a kcat/Km [5] of 11000 M⁻¹ s⁻¹. The Km [6] was 2370 µM, the kcat [6] was 30.5 s⁻¹ and the kcat/Km [6] was 12900 M⁻¹ s⁻¹. For the same protein, the Km [7] was 1300 µM, the kcat [7] was 111.1 s⁻¹ and the kcat/Km [7] was 85200 M⁻¹ s⁻¹. For the same protein, the Km [8] was 790 µM, the kcat [8] was 5.1 s⁻¹ and the kcat/Km [8] was 6500 M⁻¹ s⁻¹. The Km [9] was 2240 µM, the kcat [9] was 27.5 s⁻¹ and the kcat/Km [9] was 12300 M⁻¹ s⁻¹.
